Experimental data: publication PMC10272187, “PPP2R1A regulates migration persistence through the NHSL1-containing WAVE Shell Complex” (Nature Communications, 2023)

Molecular target: T1, WAVE1 (1-230) (UniProt Q92558 1-230)
T1 construct: WAVE1 residues 1-230; also called WAVE1 N-terminus; source: E.coli, purified
T1 sequence (looked up): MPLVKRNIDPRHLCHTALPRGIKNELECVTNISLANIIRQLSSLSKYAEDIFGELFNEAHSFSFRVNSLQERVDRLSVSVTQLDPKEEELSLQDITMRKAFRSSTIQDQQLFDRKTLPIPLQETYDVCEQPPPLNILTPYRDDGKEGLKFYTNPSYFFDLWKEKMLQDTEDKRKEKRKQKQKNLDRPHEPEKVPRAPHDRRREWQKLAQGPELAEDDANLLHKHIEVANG
Assay: SEC; Recombinant subunits expressed individually; CYFIP1-NCKAP1 dimer and BRK1-ABI1-NHSL1 (or WAVE1) trimer reconstituted; pentamers purified on SOURCE 15Q and Superdex 200 (24 ml column)
Details: both partners purified

B1: BRK1 (recombinant) (natural protein, UniProt Q8WUW1 1-75, looked up)
chain: MAGQEDPVQREIHQDWANREYIEIITSSIKKIADFLNSFDMSCRSRLATLNEKLTALERRIEYIEARVTKGETLT
notes: BRK1; source: E.coli, purified
Q: Does B1 bind?
A: Result: binds
